The data set deals with the molecule itself. Description: SEC; Superdex 200 10/300 GL, 50 mM NaH2PO4, 150 mM NaCl, pH 7.0, 4 °C, 0.5 mL/min; column calibrated with six standard proteins; self-assembly of dimers into the 24-mer cage.

For orientation: stoichiometry N means the number of molecules, sites or subunits per partner or assembly.

B1: bacterioferritin from E. coli (BFR) double mutant D132W/N34W (natural protein)
chain: not shown
notes: bacterioferritin (BFR), E. coli, with D132W and N34W; made by site-directed mutagenesis of wild-type BFR in pET32 Ek/LIC
For B1, the “stoichiometry N” value was found to be 2.

B2: bacterioferritin from E. coli (BFR) mutant N34W (natural protein)
chain: not shown
notes: bacterioferritin (BFR), E. coli, with N34W; made by site-directed mutagenesis of wild-type BFR in pET32 Ek/LIC
As to B2, the “stoichiometry N” value is 2.
